Source: the RNAGym collection of RNA variant scans (doi:10.7554/elife.80360)

B1: HDV Ribozyme (parent)
chain: GGCCGGCAUGGUCCCAGCCUCCUCGCUGGCGCCGGCUGGGCAACAUUCCGAGGGGACCGUCCCCUCGGUAAUGGCGAAUGGGACCCA

Variants of: B1
Assay: self-cleavage, relative activity (ratio to wild type); higher = more cleavage; co-transcriptional

| Variant | self-cleavage |
| --- | --- |
| G6C C61U | 0.285 |
| G6U A83G | 0.17 |
| G6U A83U | 0.256 |
| G5U U23C | 0.462 |
| G5U C84A | 0.302 |
| G6U G53A | 0.821 |
| G6U G53C | 0.494 |
| G5U C33A | 0.898 |
| G6A G28A | 0.0817 |
| C7A C49U | 0.582 |
| G5U G68C | 0.359 |
| G6C G53C | 0.32 |
| G6A G55U | 0.831 |
| G6A G55A | 0.712 |
| G6A G59C | 0.587 |
| G6U G52U | 0.397 |
| G6U G52C | 0.554 |
| C7G A8G | 0.519 |
| C7G A8C | 0 |
| G6U C32G | 0.798 |
| G5U G29A | 0.285 |

| Variant | self-cleavage |
| --- | --- |
| G6U A56G | 0.623 |
| G5U U47A | 0.378 |
| C7G C14G | 0 |
| G5U C21G | 0.0791 |
| G5U C21U | 0.0462 |
| G6A C63U | 0.743 |
| G6A C63G | 0.601 |
| G6A G34A | 0.0287 |
| C7G A56U | 0.475 |
| C7A U65A | 0.356 |
| C7A U65G | 0.246 |
| G6U C21G | 0.0361 |
| G6U C21A | 0.227 |
| G6U U72A | 0.0665 |
| G6U U72G | 0.133 |
| G5U A8C | 0.0875 |
| G6C C22G | 0.145 |
| G6C C57G | 0.396 |
| G6C C57U | 0.269 |
| G6A C13G | 0 |
| G6C G35A | 0.0755 |

| Variant | self-cleavage |
| --- | --- |
| C7G A43U | 0.0573 |
| G6U C7G | 0 |
| G6A A8U | 0.475 |
| C7A A56U | 0.617 |
| G5C G55C | 0.0898 |
| G5U U69G | 0.485 |
| G6U C36A | 0.133 |
| G5C G81A | 0.104 |
| G6A C19U | 0.0875 |
| G6U U60C | 0.525 |
| G6C U69A | 0.208 |
| C7A G11U | 0.095 |
| G6A U69C | 0.631 |
| G5C C85U | 0.277 |
| G6U C30U | 0.131 |
| G6U C30G | 0.0326 |
| G6C C62A | 0.161 |
| G6U A45G | 0.403 |
| G6U A45C | 0.0462 |
| G6U A45U | 0.475 |
| G6C C14G | 0.111 |

| Variant | self-cleavage |
| --- | --- |
| C7G A71C | 0.222 |
| G6A C62A | 0.543 |
| C7G C30A | 0.0361 |
| G6A G67U | 0.692 |
| G5U G35C | 0 |
| G5C C66G | 0.151 |
| G5U G80A | 0.208 |
| G5C G53C | 0.237 |
| G6C G74U | 0.196 |
| G6C G74C | 0 |
| G6C G17U | 0.237 |
| G5U C48U | 0.346 |
| G5U C41U | 0.415 |
| G5U C41G | 0.111 |
| G6U G31C | 0.122 |
| G6U G31A | 0.282 |
| C7A A42C | 0.19 |
| G6C C7A | 0.772 |
| G5C U79G | 0 |
| G5U A71G | 0.361 |
| G6A U37A | 0.214 |
